# Measured values taken from article PMC7356358.
# Several values for one entry are separate records, joined by “and”; a condition that tells them apart may be missing. Equal values may be shown once.
# Columns and labels:
# [1] = target: KPf, chimeric protein of the ATPase domain of DnaK and the substrate binding domain of PfHsp70-1 (Escherichia coli | Plasmodium falciparum); experiment: SPR
# [2] = system: Nc1ncnc2c1ncn2[C@@H]1O[C@H](COP(=O)(O)OP(=O)(O)OP(=O)(O)O)[C@@H](O)[C@H]1O; experiment: purified protein, by the assay type; settings: pH 7.5
# Method: Hsp70 proteins at final concentration of 0.4 μM were each incubated for 5 min in buffer HKMD (10 mM HEPES-KOH pH 7.5, 100 mM KCl, 2 mM MgCl2 and 0.5 mM DTT). The reaction was initiated by the addition of ATP at various concentrations (0–5 mM) and samples were analyzed every 30 min for 4 h.
# Standard deviations shown represent three independent assays made using separate protein purification batches.
# validated by one way ANOVA test (p< 0.05 *) and (p<0.01**).
Substance,kon [1],Km [2] [µM]
"KPf, chimeric protein of the ATPase domain of DnaK and the substrate binding domain of PfHsp70-1",154 M⁻¹ s⁻¹ and 132 M⁻¹ s⁻¹ and 142 M⁻¹ s⁻¹,–
PfHsp70-1 (Plasmodium falciparum 3D7),–,370.8
